Results taken from US20020028202A1 (Biogen, published 2002).
Positions count from the first letter of the chain named.

How the values were obtained:
Assay in all cases: staining of transfected COS-7 cells, FACS
[1] = biological target: T1, human gc chain mutant, SDN replaced by Ala (Domain 1 Loop CC), myc-tagged, on COS-7 cells (human, UniProt P31785 23-369)
T1 construct: whole, on cells; not shown: 9 amino acid myc tag at the 5' end of the construct
T1 sequence (looked up): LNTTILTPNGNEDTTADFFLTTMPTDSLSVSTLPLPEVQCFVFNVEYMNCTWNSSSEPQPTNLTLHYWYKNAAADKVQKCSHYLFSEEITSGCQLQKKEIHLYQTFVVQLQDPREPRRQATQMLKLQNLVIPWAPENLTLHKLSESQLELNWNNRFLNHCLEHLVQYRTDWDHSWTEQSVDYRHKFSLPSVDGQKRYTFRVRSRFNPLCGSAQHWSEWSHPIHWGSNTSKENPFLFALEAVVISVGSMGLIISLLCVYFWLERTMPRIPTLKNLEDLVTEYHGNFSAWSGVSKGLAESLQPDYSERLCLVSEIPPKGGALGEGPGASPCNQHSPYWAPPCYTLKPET
Protocol: (§1) COS-7 cells are transiently transfected with 20 ug of DNA encoding the gc chain mutant or wildtype cDNA and 180 ug of herring sperm carrier DNA. After 2-3 days, COS-7 cells are harvested and analyzed by immnunofluorescent staining with anti-gc chain mAbs. MAbs are used at 10 ug/ml in PBS-1% BSA-0.02% sodium azide and allowed 30 minutes to bind to 1×10⁶ COS-7 cells. Cells are then washed 2 times, and bound mAb is detected with PE-conjugated goat anti-mouse Fc specific antibodies. The % of positive cells staining with the anti-gc chain mAb over an irrelevant control Ig is determined for a given gc chain mutant and for wildtype gc chain. […] Data are adjusted for any differences in level of expression of a mutant vs. wildtype constructs by measuring the binding of a mAb specific for a 9 amino acid myc tag engineered at the 5′ end of each gc chain construct. […] Values reduced from 100% indicate amino acid mutations which affect mAb binding.
(§2) The value “100%” indicates no effect of mutation and lower percentages indicate greater losses in binding as a result of the sequence change.

[2] = biological target: T2, human gc chain mutant, NDK replaced by Ala (Domain 1 Loop CC), myc-tagged, on COS-7 cells (human, UniProt P31785 23-369)
T2 construct: whole, on cells; not shown: 9 amino acid myc tag at the 5' end of the construct
T2 sequence (looked up): T1 sequence (looked up) with A72S, A73D, D75A, K76A
Protocol: as §1, §2

[3] = biological target: T3, human gc chain mutant, LQN replaced by Ala (interdomain residues), myc-tagged, on COS-7 cells (human, UniProt P31785 23-369)
T3 construct: whole, on cells; not shown: 9 amino acid myc tag at the 5' end of the construct
T3 sequence (looked up): T1 sequence (looked up) with A72S, A73D, A74N, L126A, Q127A, N128A
Protocol: as §1, §2

[4] = biological target: T4, human gc chain mutant, PW replaced by Ala (interdomain residues), myc-tagged, on COS-7 cells (human, UniProt P31785 23-369)
T4 construct: whole, on cells; not shown: 9 amino acid myc tag at the 5' end of the construct
T4 sequence (looked up): T1 sequence (looked up) with A72S, A73D, A74N, P132A, W133A
Protocol: as §1, §2

[5] = biological target: T5, human gc chain mutant, LNH replaced by Ala (Domain 2 Loop BC), myc-tagged, on COS-7 cells (human, UniProt P31785 23-369)
T5 construct: whole, on cells; not shown: 9 amino acid myc tag at the 5' end of the construct
T5 sequence (looked up): T1 sequence (looked up) with A72S, A73D, A74N, L157A, N158A, H159A
Protocol: as §1, §2

[6] = biological target: T6, human gc chain mutant, SAQ replaced by Ala (Domain 2 Loop FQ), myc-tagged, on COS-7 cells (human, UniProt P31785 23-369)
T6 construct: whole, on cells; not shown: 9 amino acid myc tag at the 5' end of the construct
T6 sequence (looked up): T1 sequence (looked up) with A72S, A73D, A74N, S211A, Q213A
Protocol: as §1, §2

B1: CP.B8 monoclonal antibody (murine anti-human gc chain, hybridoma ATCC HB-12107) (antibody, V domains shown)
VH: LQESGPGLVAPSQSLSITCTVSGFSLTSYGVHWVRQPPGKGLEWLGVIWAGGSTNYNSALMSRLNINRDNSKSQIFLKMNSLQTDDTAIYYCAREGSTVDSMDYWGQGTTVT
VL: DIVMTQSHKFMSTSVGDSITITCKASQDVTTAVAWYQQKPGQSPKLLIYWASTRHTGVPDRFTGSGSGTDYTLTISSVQAEDLALYYCQQHYITPWTFGGGTKLEI
notes: Used unconjugated and biotin-conjugated; also called CP.B8 mAb; mAb CP.B8
In the case of B1, the “% binding to mutant gc chain/wildtype gc chain” value [1] is reported as 68%, the “% binding to mutant gc chain/wildtype gc chain” value [2] is reported as 71% and the “% binding to mutant gc chain/wildtype gc chain” value [3] is reported as 4%. For the same binder, the “% binding to mutant gc chain/wildtype gc chain” value [4] was 73%, the “% binding to mutant gc chain/wildtype gc chain” value [5] was 88% and the “% binding to mutant gc chain/wildtype gc chain” value [6] was 111%.
